# In patent publication US20190284272A1 (published 2019):
# Numbering of substitutions follows the chain as printed.
# T1: canine IL-31 protein (Canine_IL31) (canine)
# T1 chain: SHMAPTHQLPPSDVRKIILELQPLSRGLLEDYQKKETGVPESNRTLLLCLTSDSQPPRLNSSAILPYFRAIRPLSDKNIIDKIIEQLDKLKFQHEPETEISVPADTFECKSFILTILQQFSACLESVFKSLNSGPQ
# T2: canine IL-31 protein (Canine_IL31)
# T2 chain: T1 chain
# B1: ZTS-361 (antibody)
# heavy: QVLLVQSGAEVRTPGASVKIFCKASGYSFTSYTIHWLRQAPAQGLEWMGNINPTSGYTENNQRFKDRLTLTADTSTNTAYMELSSLRSADTAMYYCARWGFKYDGEWSFDVWGAGTTVTVSSASTTAPSVFPLAPSCGTTSGATVALACLVLGYFPEPVTVSWNSGALTSGVHTFPAVLQASGLYSLSSMVTVPSSRWLSDTFTCNVAHPPSNTKVDKTVRKTDHPPGPKPCDCPKCPPPEAAGAPSIFIFPPKPKDTLSISRTPEVTCLVVDLGPDDSDVQITWFVDNTQVYTAKTSPREEQFNSTYRVVSVLPILHQDWLKGKEFKCKVNSKSLPSPIERTISKAKGQPHEPQVYVLPPAQEELSRNKVSVTCLIKSFHPPDIAVEWEITGQPEPENNYRTTPPQLDSDGTYFVYSKLSVDRSHWQRGNTYTCSVSHEALHSHHTQKSLTQSPGK
# light: EIQMTQSPSSLSASPGDRVTITCRASQGISIWLSWYQQKPGNIPKVLINKASNLHIGVPSRFSGSGSGTDFTLTISSLEPEDAATYYCLQSQTYPLTFGGGTKLEIKRSDAQPSVFLFQPSLDELHTGSASIVCILNDFYPKEVNVKWKVDGVVQNKGIQESTTEQNSKDSTYSLSSTLTMSSTEYQSHEKFSCEVTHKSLASTLVKSFQRSECQRE
# notes: Felinized 15H05 1.1 FW2, effector-null feline heavy constant region
# B2: ZTS-1505 (antibody)
# heavy: B1 heavy
# light: EIQMTQSPSSLSASPGDRVTITCRASQGISIWLSWYQQKPGNIPKVLINKASNLHIGVPSRFSGSGSGTDFTLTISSLEPEDAATYYCLQSQTYPLTFGGGTKLEIKRSDAQPSVFLFQPSLDELHTGSASIVCILNDFYPKEVNVKWKVDGVVQNKGIQESTTEQNSKDSTYSLSSTLTMSSTEYQSHEKFSCEVTHKSLASTLVKSFQRSEC
# notes: also called ZT-1 505
# B3: mouse anti IL-31 antibody 15H05 (antibody, mouse IgG1, kappa)
# heavy: QVQLQQSAAELARPGASVKMSCKTSGYTFTSYTIHWIKQRPGQGLEWIGNINPTSGYTENNQRFKDKTTLTVDRSSNTAYLQLHSLTSEDSAVYFCARWGFKYDGEWSFDVWGAGTTVTVSSKTTPPSVYPLAPGSAAQTNSMVTLGCLVKGYFPEPVTVTWNSGSLSSGVHTFPAVLESDLYTLSSSVTVPSSPRPSETVTCNVAHPASSTKVDKKIVPRDCGCKPCICTVPEVSSVFIFPPKPKDVLTITLTPKVTCVVVDISKDDPEVQFSWFVDDVEVHTAQTQPREEQFNSTFRSVSELPIMHQDWLNGKEFKCRVNSAAFPAPIEKTISKTKGRPKAPQVYTIPPPKEQMAKDKVSLTCMITDFFPEDITVEWQWNGQPAENYKNTQPIMNTNGSYFVYSKLNVQKSNWEAGNTFTCSVLHEGLHNHHTEKSLSHSPGK
# light: DIQMNQSPSSLSASLGDTITVTCRASQGISIWLSWYQQKPGNIPKVLINKASNLHIGVPPRFSGSGSGTHFTLTITSLQPEDIATYYCLQSQTYPLTFGGGTKLEINADAAPTVSIFPPSSEQLTSGGASVVCFLNNFYPKDINVKWKIDGSERQNGVLNSWTDQDSKDSTYSMSSTLTLTKDEYERHNSYTCEATHKTSTSPIVKSFNRNEC
# notes: Mouse hybridoma antibody, mouse IgG1 heavy and mouse kappa light constant regions; also called Mu-15H05; MU-15H05
# B4: Feline_11E12 1.1_K46Q (antibody, V domains shown)
# VH: QVLLVQSGAEVKKPGASVKIFCKASGYSFTYYDINWLRQAPEQGLEWMGWIFPGDGGTKYNETFKGRLTLTADTSTNTVYMELSSLRSADTAMYYCARGGTSVIRDAMDYWGQGALVTVSS
# VL: EIQMTQSPSSLSASPGDRVTITCRASESVDNYGISFMHWYQQKPGQVPKLLIYRASNLESGVPSRFSGSGSGTDFTLTISSLEPEDAATYYCQQSNKDPLTFGQGT
# B5: Feline 11E12 1.1 (antibody, V domains shown)
# VH: B4 VH
# VL: B4 VL with Q46K
# B6: Feline 11E12 1.1 FW2 (antibody, V domains shown)
# VH: B4 VH
# VL: B4 VL with V47P
# B7: Feline 15H05 1.1 FW1_2 (antibody, V domains shown)
# VH: QVLLVQSGAEVRTPGASVKIFCKASGYSFTSYTIHWLRQAPAQGLEWMGNINPTSGYTENNQRFKDRLTLTADTSTNTAYMELSSLRSADTAMYYCARWGFKYDGEWSFDVWGAGTTVTVSS
# VL: DIQMNQSPSSLSASLGDTITVTCRASQGISIWLSWYQQKPGNIPKVLINKASNLHIGVPSRFSGSGSGTDFTLTISSLEPEDAATYYCLQSQTYPLTFGGGTKLEIK
# B8: Feline 15H05 3.1 (antibody, V domains shown)
# VH: B7 VH with T13K, A42E
# VL: B7 VL with D1E, N5T, L15P, T18R, I19V, V21I, N42K, I43V, V46L, N49Y
# B9: Feline 15H05 1.1 FW1 (antibody, V domains shown)
# VH: B7 VH
# VL: B7 VL with N42K, I43V, V46L, N49Y
# B10: Feline 15H05 VH3 mouse VL (antibody, V domains shown)
# VH: B7 VH with T13K, A42E
# VL: B7 VL with S60P, D70H, S76T, E79Q, A83I, K107N
# B11: Feline 15H05 1.1 (antibody, V domains shown)
# VH: B7 VH
# VL: B7 VL with D1E, N5T, L15P, T18R, I19V, V21I, N42K, I43V, V46L, N49Y
# B12: Feline 15H05 3.2 (antibody, V domains shown)
# VH: B7 VH with T13K, A42E
# VL: EITMTQSPGSLAGSPGQQVTMNCRASQGISIWLSWYQQKPGQHPKLLIYKASNLHIGVPDRFSGSGSGTDFTLTISNLQAEDVASYYCLQSQTYPLTFGGGTKLEIK
# B13: Feline 15H05 VH2 mouse VL (antibody, V domains shown)
# VH: B7 VH with S28G, L37V, A40S
# VL: B7 VL with S60P, D70H, S76T, E79Q, A83I, K107N
# B14: Feline 15H05 VH1 mouse VL (antibody, V domains shown)
# VH: B7 VH
# VL: B7 VL with S60P, D70H, S76T, E79Q, A83I, K107N
# B15: Feline 15H05 1.1 FW2_3 (antibody, V domains shown)
# VH: B7 VH
# VL: EIQMTQSPSSLSASPGDRVTITCRASQGISIWLSWYQQKPGNIPKVLINKASNLHIGVPPRFSGSGSGTHFTLTITSLQPEDIATYYCLQSQTYPLTFGGGTKLEIK
# B16: Feline 15H05 2.2 (antibody, V domains shown)
# VH: B7 VH with S28G, L37V, A40S
# VL: B12 VL
# B17: Feline 15H05 1.1 FW1_3 (antibody, V domains shown)
# VH: B7 VH
# VL: B7 VL with N42K, I43V, V46L, N49Y, S60P, D70H, S76T, E79Q, A83I
# B18: Feline 15H05 1.1 FW2 (antibody, V domains shown)
# VH: B7 VH
# VL: B15 VL with P60S, H70D, T76S, Q79E, I83A
# B19: Feline 15H05 1.1 FW3 (antibody, V domains shown)
# VH: B7 VH
# VL: B15 VL with N42K, I43V, V46L, N49Y
# B20: Feline 15H05 1.2 (antibody, V domains shown)
# VH: B7 VH
# VL: B12 VL
# B21: Feline 15H05 2.1 (antibody, V domains shown)
# VH: B7 VH with S28G, L37V, A40S
# VL: B15 VL with N42K, I43V, V46L, N49Y, P60S, H70D, T76S, Q79E, I83A
# B22: Feline 15H05 1.3 (antibody, V domains shown)
# VH: B7 VH
# VL: EVVLTQSSAFLSRTLKEKATITCRASQGISIWLSWYQQKPNQAPKLLVKKASNLHIGAPSRFSGSGSGTDFTLTISSPEPEDAATYYCLQSQTYPLTFGGGTKLGDQ
# Molecular target: T1, canine IL-31 protein (Canine_IL31)
# Test: cell-based or functional assay
row,Binder,"Inhibition of IL-31 induced pSTAT3 IC50 (µg/ml), Canine IL-31 on Canine DH82 cells [µg/ml]"
1,B1,23
2,B2,21.8
3,B3,11.2

# Molecular target: T2, canine IL-31 protein (Canine_IL31)
# Test: Biacore
row,Binder,Kd [nM]
1,B4,1.91
2,B5,0.764
3,B6,7.02
4,B7,0.263
5,B8,0.795
6,B9,813
7,B10,0.00264
8,B11,0.00504
9,B12,0.204
10,B13,2.22
11,B14,0.00246
12,B15,214
13,B16,0.393
14,B17,0.00436
15,B18,0.000431
16,B19,0.13
17,B20,3.48
18,B21,1.65
19,B22,6.38
20,B3,0.00487

# Molecular target: T1, canine IL-31 protein (Canine_IL31)
# Test: SPR (Biacore), IL-31 protein as surface
# Procedure: The affinity with which candidate mAbs bind canine and feline IL-31 was determined using surface plasmon resonance (SPR) on a Biacore system (Biocore Life Sciences (GE Healthcare), Uppsala, Sweden). To avoid affinity differences associated with differential surface preparation that can occur when immobilizing antibodies to surfaces; a strategy was employed where IL-31 was directly conjugated to the surface. Immobilization was obtained by amine coupling 5 μg/mL IL-31 using N-hydroxysuccinimide (NHS)/1-Ethyl-3-(3-dimethylaminopropyl) carbodiimide (EDC) chemistry. Chips were quenched with ethanolamine and the affinity with which all candidate mAbs bound to the immobilized IL-31 was evaluated. All curves were fit to a 1:1 model. […] Results for affinity measurements are described herein.
# Table 1 below describes the results for biacore analysis using multiple species of IL-31 protein as a surface capture.
row,Binder,Kd [nM]
1,B1,0.00241
2,B2,0.00183
3,B3,0.00191
